Experiment [1] deals with CheY K91C, methylene blue at position 91 (E. coli) (UniProt P0AE67). Put plainly: electrochemical sensor.
Experiment [2] deals with phosphorylated CheY K91C, methylene blue at position 91 (E. coli) (UniProt P0AE67). Put plainly: electrochemical sensor.

What is called Kd is the equilibrium constant for the complex coming apart. Lower therefore signals a tighter complex. “16-residue target region of the flagellar switch protein FliM (peptide)”: the Kd in experiment [1] was 213 µM; in experiment [2], 16 µM.

Values taken from publication PMC6021012.
